For one assay, the target named is T1, 4H477-bH.
T1 chain: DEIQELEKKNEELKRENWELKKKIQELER
Nature of the assay: two-hybrid library CCNG1.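 Also: natural log of median RNA to DNA barcode read ratio; higher means stronger binding.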

The next assay has as its target T2, 4H3057-bH.
T2 chain: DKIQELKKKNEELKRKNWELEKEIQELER
Put plainly: two-hybrid library CCNG1.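 Also: natural log of median RNA to DNA barcode read ratio; higher means stronger binding.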

A further assay deals with T3, 4H492-bH.
T3 chain: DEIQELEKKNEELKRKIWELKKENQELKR
Nature of the assay: two-hybrid library CCNG1.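 Also: natural log of median RNA to DNA barcode read ratio; higher means stronger binding.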

For a further assay, the target named is T4, 4H3277-bH.
T4 chain: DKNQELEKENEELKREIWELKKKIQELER
Put plainly: two-hybrid library CCNG1.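 Also: natural log of median RNA to DNA barcode read ratio; higher means stronger binding.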

Another assay deals with T5, 4H741-bH.
T5 chain: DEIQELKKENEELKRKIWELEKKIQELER
Put plainly: two-hybrid library CCNG1.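 Also: natural log of median RNA to DNA barcode read ratio; higher means stronger binding.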

In the next assay the target is T6, 4H40-bH.
T6 chain: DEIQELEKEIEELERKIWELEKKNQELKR
Put plainly: two-hybrid library CCNG1.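 Also: natural log of median RNA to DNA barcode read ratio; higher means stronger binding.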

The target of the next assay is T7, 4H319-bH.
T7 chain: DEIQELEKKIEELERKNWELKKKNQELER
Put plainly: two-hybrid library CCNG1.

The next assay concerns the target T8, 4H348-bH.
T8 chain: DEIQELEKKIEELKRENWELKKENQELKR
Nature of the assay: two-hybrid library CCNG1.

The next assay concerns the target T9, 4H754-bN.
T9 chain: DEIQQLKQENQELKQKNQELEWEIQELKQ
Nature of the assay: two-hybrid library CCNG1.

Another assay concerns the target T10, 4H3855-bN.
T10 chain: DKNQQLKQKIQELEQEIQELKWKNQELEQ
Nature of the assay: two-hybrid library CCNG1.

For a further assay, the target named is T11, 4H338-bN.
T11 chain: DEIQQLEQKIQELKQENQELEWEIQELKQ
Put plainly: two-hybrid library CCNG1.

The target of the next assay is T12, 4H454-bN.
T12 chain: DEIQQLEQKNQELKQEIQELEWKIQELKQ
Put plainly: two-hybrid library CCNG1.

The next assay concerns the target T13, 4H72-bN.
T13 chain: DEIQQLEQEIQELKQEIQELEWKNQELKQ
Nature of the assay: two-hybrid library CCNG1.

For another assay, the target named is T14, 4H908-bN.
T14 chain: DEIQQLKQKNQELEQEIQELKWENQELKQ
Put plainly: two-hybrid library CCNG1.

The next assay addresses T15, 4H568-bN.
T15 chain: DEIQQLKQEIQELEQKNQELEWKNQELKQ
Nature of the assay: two-hybrid library CCNG1.

A further assay concerns the target T16, 4H883-bN.
T16 chain: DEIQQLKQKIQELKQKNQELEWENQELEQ
Put plainly: two-hybrid library CCNG1.

In another assay the target is T17, 4H4001-bN.
T17 chain: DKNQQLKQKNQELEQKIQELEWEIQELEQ
Put plainly: two-hybrid library CCNG1.

The next assay has as its target T18, 4H607-bN.
T18 chain: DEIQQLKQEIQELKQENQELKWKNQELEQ
Put plainly: two-hybrid library CCNG1.

Another assay has as its target T19, 4H797-bN.
T19 chain: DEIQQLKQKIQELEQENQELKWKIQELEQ
Put plainly: two-hybrid library CCNG1.

The next assay has as its target T20, 4H918-bN.
T20 chain: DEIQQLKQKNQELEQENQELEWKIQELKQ
Nature of the assay: two-hybrid library CCNG1.

The target of the next assay is T21, 4H953-bN.
T21 chain: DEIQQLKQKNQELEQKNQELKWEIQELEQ
Put plainly: two-hybrid library CCNG1.

The next assay addresses T22, 4H3427-bN.
T22 chain: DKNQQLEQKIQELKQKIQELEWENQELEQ
Nature of the assay: two-hybrid library CCNG1.

The target in a further assay is T23, 4H3782-bN.
T23 chain: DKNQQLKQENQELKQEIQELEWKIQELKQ
Nature of the assay: two-hybrid library CCNG1.

A further assay concerns the target T24, 4H967-bN.
T24 chain: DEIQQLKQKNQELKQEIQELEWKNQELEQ
Put plainly: two-hybrid library CCNG1.

The next assay deals with T25, 4H717-bN.
T25 chain: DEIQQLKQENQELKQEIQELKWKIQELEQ
Put plainly: two-hybrid library CCNG1.

The target in another assay is T26, 4H687-bN.
T26 chain: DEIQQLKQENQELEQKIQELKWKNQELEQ
Nature of the assay: two-hybrid library CCNG1.

The next assay has as its target T27, P8-AA.
T27 chain: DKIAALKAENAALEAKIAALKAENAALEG
Nature of the assay: two-hybrid library CCmax. The conditions noted are these: mean of both orientations.

The target of another assay is T28, P10-AA.
T28 chain: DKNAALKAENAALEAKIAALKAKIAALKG
Put plainly: two-hybrid library CCmax. The conditions noted are these: mean of both orientations.

A further assay concerns the target T29, AP8-AA.
T29 chain: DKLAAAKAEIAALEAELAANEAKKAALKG
Put plainly: two-hybrid library CCmax. The note with it: mean of both orientations.

Another assay has as its target T30, P7-AA.
T30 chain: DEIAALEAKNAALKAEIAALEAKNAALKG
Put plainly: two-hybrid library CCmax. The note with it: mean of both orientations.

For a further assay, the target named is T31, P9-AA.
T31 chain: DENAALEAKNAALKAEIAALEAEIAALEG
Put plainly: two-hybrid library CCmax. The note with it: mean of both orientations.

Another assay concerns the target T32, P3-AA.
T32 chain: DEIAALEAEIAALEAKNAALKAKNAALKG
Nature of the assay: two-hybrid library CCmax. The note with it: mean of both orientations.

In another assay the target is T33, P12-AA.
T33 chain: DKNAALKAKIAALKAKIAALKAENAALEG
Put plainly: two-hybrid library CCmax. The conditions noted are these: mean of both orientations.

In another assay the target is T34, P2-AA.
T34 chain: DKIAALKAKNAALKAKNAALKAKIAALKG
Nature of the assay: two-hybrid library CCmax. The note with it: mean of both orientations.

Another assay concerns the target T35, P4-AA.
T35 chain: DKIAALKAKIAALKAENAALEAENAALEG
Put plainly: two-hybrid library CCmax. The note with it: mean of both orientations.

The next assay deals with T36, P11-AA.
T36 chain: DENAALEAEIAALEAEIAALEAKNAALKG
Put plainly: two-hybrid library CCmax. The note with it: mean of both orientations.

The target of the next assay is T37, P1-AA.
T37 chain: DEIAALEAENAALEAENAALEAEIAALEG
Nature of the assay: two-hybrid library CCmax. The note with it: mean of both orientations.

The target of another assay is GCN2_T. Nature of the assay: two-hybrid library CCmax.
The target in a further assay is T38, AP7-AA.
T38 chain: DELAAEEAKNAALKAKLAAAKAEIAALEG
Nature of the assay: two-hybrid library CCmax.

In a further assay the target is T39, 4H370-bN.
T39 chain: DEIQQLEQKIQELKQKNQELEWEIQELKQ
Nature of the assay: two-hybrid library CCNG1.

The target in the next assay is T40, 4H462-bN.
T40 chain: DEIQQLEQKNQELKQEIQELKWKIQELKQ
Nature of the assay: two-hybrid library CCNG1.

The next assay addresses T41, 4H3843-bN.
T41 chain: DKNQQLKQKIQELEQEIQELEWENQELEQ
Put plainly: two-hybrid library CCNG1.

For a further assay, the target named is T42, 4H3817-bN.
T42 chain: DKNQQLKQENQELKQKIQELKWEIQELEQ
Nature of the assay: two-hybrid library CCNG1.

The target in a further assay is T43, 4H619-bN.
T43 chain: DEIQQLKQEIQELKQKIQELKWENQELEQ
Put plainly: two-hybrid library CCNG1.

For another assay, the target named is T44, 4H906-bN.
T44 chain: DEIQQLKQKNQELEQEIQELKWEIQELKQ
Put plainly: two-hybrid library CCNG1.

The next assay concerns the target T45, 4H3974-bN.
T45 chain: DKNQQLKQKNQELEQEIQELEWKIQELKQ
Put plainly: two-hybrid library CCNG1.

The next assay has as its target T46, 4H584-bN.
T46 chain: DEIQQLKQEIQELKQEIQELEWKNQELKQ
Nature of the assay: two-hybrid library CCNG1.

The target of another assay is T47, 4H3858-bN.
T47 chain: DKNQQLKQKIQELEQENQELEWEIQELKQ
Nature of the assay: two-hybrid library CCNG1.

The target in another assay is T48, 4H850-bN.
T48 chain: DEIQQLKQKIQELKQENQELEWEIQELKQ
Nature of the assay: two-hybrid library CCNG1.

The target in the next assay is T49, 4H570-bN.
T49 chain: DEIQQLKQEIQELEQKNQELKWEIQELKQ
Nature of the assay: two-hybrid library CCNG1.

For the next assay, the target named is T50, O9-bP.
T50 chain: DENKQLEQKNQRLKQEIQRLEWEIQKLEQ
Put plainly: two-hybrid library CCNG1.

The target in the next assay is T51, 4H3926-bN.
T51 chain: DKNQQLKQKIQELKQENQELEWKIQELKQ
Nature of the assay: two-hybrid library CCNG1.

The next assay has as its target T52, 4H3628-bN.
T52 chain: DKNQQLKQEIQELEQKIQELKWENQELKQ
Nature of the assay: two-hybrid library CCNG1.

Another assay has as its target T53, 4H626-bN.
T53 chain: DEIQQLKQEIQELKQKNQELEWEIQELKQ
Nature of the assay: two-hybrid library CCNG1.

A further assay deals with T54, 4H591-bN.
T54 chain: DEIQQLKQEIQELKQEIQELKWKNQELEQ
Nature of the assay: two-hybrid library CCNG1.

Read-outs that look alike come from different tables or passages of the source.

As for DKIQELKKKNEELKRKNWELEKEIQELER [4H3057-bH], the interaction score with 4H477-bH is -1.13; with 4H3057-bH it was -0.611; with 4H492-bH it was -1.13; with 4H3277-bH, -1.01; with 4H741-bH it was -1.52; with 4H40-bH, -1.77. For the same molecule, the interaction score with 4H319-bH is -1.81; in the assay with 4H348-bH it was -0.361.
As for DEIQQLEQKIQELKQENQELEWEIQELKQ [4H338-bN], the interaction score is -0.701 in the assay with 4H754-bN; -0.12 with 4H3855-bN; -1.01 with 4H338-bN; -0.967 in the assay with 4H454-bN; -0.606 with 4H72-bN; -0.434 with 4H908-bN. Also, the interaction score with 4H568-bN was 0.409; with 4H883-bN, -1.26; in the assay with 4H4001-bN, -0.385; in the assay with 4H607-bN, -1.19; with 4H797-bN, -1.45; in the assay with 4H918-bN it was -0.295. Besides, the interaction score was -1.33 with 4H953-bN; -0.828 in the assay with 4H3427-bN; -0.966 with 4H3782-bN; 0.117 with 4H967-bN; -1.16 in the assay with 4H717-bN; 0.0368 in the assay with 4H687-bN.
With DELAAEEAKNAALKAKLAAAKAEIAALEG [AP7-AA], the interaction score with P8-AA was -0.66; with P10-AA, -0.0128; with AP8-AA it was -2.81; with P7-AA, -2.09; in the assay with P9-AA, -2.24; in the assay with P3-AA, -1.88. In addition, the interaction score was -1.62 with P12-AA; -1.94 with P2-AA; -1.42 with P4-AA; -0.965 in the assay with P11-AA; -1.52 with P1-AA; -2.13 with GCN2_T. Besides, the interaction score in the assay with AP7-AA is -1.7.
As to DEIQQLEQKIQELKQKNQELEWEIQELKQ [4H370-bN], the interaction score in the assay with 4H370-bN was 0.966; with 4H72-bN it was -0.189; with 4H462-bN, -1.49; with 4H568-bN, 0.649; in the assay with 4H883-bN, -1.39; with 4H4001-bN it was -0.655. In addition, the interaction score with 4H607-bN was -0.679; with 4H797-bN it was -0.598; with 4H3843-bN, -0.715; with 4H918-bN it was -0.831; in the assay with 4H953-bN, -1.96; in the assay with 4H3782-bN, -0.329. In addition, the results for the interaction score with 4H967-bN and with 4H687-bN were -0.814 and -1.17, respectively.
In the case of DKNQQLKQENQELKQKIQELKWEIQELEQ [4H3817-bN], the interaction score with 4H3817-bN is -0.754; in the assay with 4H619-bN, -0.743; in the assay with 4H906-bN, -1.83; with 4H3974-bN it was -0.487; with 4H584-bN it was -2.15; with 4H3858-bN, -0.555. Besides, the results for the interaction score in the assay with 4H850-bN and in the assay with 4H570-bN were -0.947 and -1.92, respectively.
Turning to DEEAALEAKAAALKAELAANEAKLAAAKG [AP6-AA], the interaction score with P8-AA was -1.22; with P10-AA, -0.802; in the assay with AP8-AA it was -1.59; with P7-AA, -0.655; with P9-AA, -0.901; with P3-AA it was -1.95. In addition, the interaction score with P12-AA is -1.57; with P2-AA it was -1.88; in the assay with P4-AA, -2.36; with P11-AA, -1.25; in the assay with P1-AA, -1.88; with GCN2_T it was -1.54. The interaction score in the assay with AP7-AA (mean of both orientations) is -1.62.
As for DKNQQLKQEIQELEQKIQELKWENQELKQ [4H3628-bN], the interaction score was -1.03 with 4H3817-bN; -0.345 in the assay with O9-bP; 0.069 with 4H906-bN; -0.307 with 4H3926-bN; -0.134 in the assay with 4H3974-bN; -0.36 in the assay with 4H3628-bN. Besides, the interaction score is -2.08 in the assay with 4H626-bN; -2.07 with 4H3858-bN; -1.18 with 4H850-bN; -0.603 in the assay with 4H591-bN; -1.33 with 4H570-bN; -0.529 in the assay with 4H687-bN.

(Values after publication PMC10397247.)
